Experimental data as given in the supplement of paper PMC9112550, “Optimization of the antimicrobial peptide Bac7 by deep mutational scanning” (BMC Biology, 2022).

Tested on: Escherichia coli TOP10
Assay: shrunken log2 fold change of peptide-encoding DNA abundance (4.5 h post-induction vs induction); higher = less antimicrobial activity (less host growth inhibition)
Settings: time post-induction: 4.5 h; library: site-saturation at positions 5, 18, 19, 20
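Note: peptides expressed intracellularly from a pBAD plasmid library in pooled LB shake-flask culture, induced with 0.3% L-arabinose, DNA abundance read by NGS, three biological replicates, DESeq2 with apeglm shrinkage.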

Row | Sequence | shrunken log2 fold change
1 | RRIRARPPRLPRPRPRPFRGPRP | -0.0013
2 | RRIRVRPPRLPRPRPRPNVSPRP | -0.0331
3 | RRIRLRPPRLPRPRPRPDNQPRP | -0.889
4 | RRIRGRPPRLPRPRPRPRRSPRP | 0.767
5 | RRIRYRPPRLPRPRPRPDKVPRP | -0.102
6 | RRIRWRPPRLPRPRPRPHVGPRP | 0.0547
7 | RRIRMRPPRLPRPRPRPIREPRP | 0.425
8 | RRIRCRPPRLPRPRPRPCTEPRP | -0.186
9 | RRIRKRPPRLPRPRPRPSMIPRP | -0.0957
10 | RRIRVRPPRLPRPRPRPNIMPRP | -0.512
11 | RRIRPRPPRLPRPRPRPIIKPRP | -0.417
12 | RRIRARPPRLPRPRPRPAVLPRP | 0.549
13 | RRIRRRPPRLPRPRPRPGVEPRP | 0.99
14 | RRIRIRPPRLPRPRPRPPHNPRP | -0.521
15 | RRIRRRPPRLPRPRPRPFRRPRP | 0.322
16 | RRIRRRPPRLPRPRPRPHNYPRP | 0.103
17 | RRIRVRPPRLPRPRPRPQYNPRP | -0.851
18 | RRIRSRPPRLPRPRPRPGMSPRP | -0.0403
19 | RRIRWRPPRLPRPRPRPHSMPRP | -0.216
20 | RRIRPRPPRLPRPRPRPEADPRP | 0.0865
21 | RRIRERPPRLPRPRPRPTSVPRP | -0.028
22 | RRIRMRPPRLPRPRPRPYDIPRP | 0.0444
23 | RRIRPRPPRLPRPRPRPHPVPRP | 0.151
24 | RRIRGRPPRLPRPRPRPTFPPRP | 0.347
25 | RRIRHRPPRLPRPRPRPTHGPRP | 0.125

Row | Sequence | shrunken log2 fold change
26 | RRIRHRPPRLPRPRPRPCMYPRP | -0.0819
27 | RRIRDRPPRLPRPRPRPNLMPRP | 0.0913
28 | RRIRLRPPRLPRPRPRPLFDPRP | -0.148
29 | RRIRCRPPRLPRPRPRPWNMPRP | -0.316
30 | RRIRKRPPRLPRPRPRPYPDPRP | -0.175
31 | RRIRIRPPRLPRPRPRPIHLPRP | -0.352
32 | RRIRPRPPRLPRPRPRPRAYPRP | -0.13
33 | RRIRARPPRLPRPRPRPPEKPRP | 0.611
34 | RRIRCRPPRLPRPRPRPWFEPRP | -0.45
35 | RRIRWRPPRLPRPRPRPWWCPRP | -0.0237
36 | RRIRNRPPRLPRPRPRPEMVPRP | -0.0225
37 | RRIRKRPPRLPRPRPRPGWAPRP | 1.04
38 | RRIRYRPPRLPRPRPRPHMRPRP | -0.02
39 | RRIRARPPRLPRPRPRPPIAPRP | 0.534
40 | RRIRMRPPRLPRPRPRPDAEPRP | 4.37
41 | RRIRQRPPRLPRPRPRPWWPPRP | -0.119
42 | RRIRMRPPRLPRPRPRPKDPPRP | 0.438
43 | RRIRTRPPRLPRPRPRPWSCPRP | -0.29
44 | RRIRQRPPRLPRPRPRPAQLPRP | 0.0104
45 | RRIRMRPPRLPRPRPRPQFVPRP | -0.0894
46 | RRIRWRPPRLPRPRPRPWIIPRP | -0.267
47 | RRIRHRPPRLPRPRPRPTNMPRP | 1.96
48 | RRIRKRPPRLPRPRPRPAWNPRP | 1
49 | RRIRFRPPRLPRPRPRPGHGPRP | 0.148
50 | RRIRSRPPRLPRPRPRPHDDPRP | -0.114

Row | Sequence | shrunken log2 fold change
51 | RRIRQRPPRLPRPRPRPKGTPRP | 0.109
52 | RRIRFRPPRLPRPRPRPRLFPRP | -0.0286
53 | RRIRERPPRLPRPRPRPIEFPRP | 0.101
54 | RRIRQRPPRLPRPRPRPDTTPRP | 0.0217
55 | RRIRGRPPRLPRPRPRPVTAPRP | 0.74
56 | RRIRTRPPRLPRPRPRPHTYPRP | -0.296
57 | RRIRRRPPRLPRPRPRPTGPPRP | 0.369
58 | RRIRNRPPRLPRPRPRPGCMPRP | 0.0522
59 | RRIRPRPPRLPRPRPRPPTLPRP | 0.129
60 | RRIRLRPPRLPRPRPRPELEPRP | 0.23
61 | RRIRTRPPRLPRPRPRPNTAPRP | -0.0235
62 | RRIRHRPPRLPRPRPRPWRLPRP | -0.0125
63 | RRIRERPPRLPRPRPRPVKQPRP | -0.0109
64 | RRIRDRPPRLPRPRPRPPGNPRP | 0.21
65 | RRIRVRPPRLPRPRPRPSPQPRP | 0.0525
66 | RRIRNRPPRLPRPRPRPSNDPRP | -0.349
67 | RRIRVRPPRLPRPRPRPNKTPRP | 0.172
68 | RRIRRRPPRLPRPRPRPMMSPRP | 0.0352
69 | RRIRVRPPRLPRPRPRPEYYPRP | 0.0358
70 | RRIRDRPPRLPRPRPRPDHWPRP | 0.0704
71 | RRIRARPPRLPRPRPRPEFPPRP | 0.962
72 | RRIRKRPPRLPRPRPRPCSDPRP | -0.0361
73 | RRIRKRPPRLPRPRPRPQNHPRP | 2.37
74 | RRIRPRPPRLPRPRPRPYFLPRP | -0.614
75 | RRIRGRPPRLPRPRPRPHIEPRP | 1.15

Row | Sequence | shrunken log2 fold change
76 | RRIRLRPPRLPRPRPRPDEKPRP | -0.00968
77 | RRIRERPPRLPRPRPRPKCDPRP | 0.175
78 | RRIRTRPPRLPRPRPRPAMYPRP | -0.106
79 | RRIRLRPPRLPRPRPRPYTDPRP | -0.348
80 | RRIRYRPPRLPRPRPRPMFDPRP | -1.4
81 | RRIRARPPRLPRPRPRPLDCPRP | 0.49
82 | RRIRSRPPRLPRPRPRPHFCPRP | -0.29
83 | RRIRIRPPRLPRPRPRPAWHPRP | 0.031
84 | RRIRQRPPRLPRPRPRPNAIPRP | -0.393
85 | RRIRYRPPRLPRPRPRPDFTPRP | -0.0212
86 | RRIRERPPRLPRPRPRPCRNPRP | -0.269
87 | RRIRARPPRLPRPRPRPNMSPRP | 0.12
88 | RRIRDRPPRLPRPRPRPVNYPRP | -0.116
89 | RRIRHRPPRLPRPRPRPPYEPRP | -0.486
90 | RRIRSRPPRLPRPRPRPNLKPRP | 0.087
91 | RRIRTRPPRLPRPRPRPHGAPRP | -0.0597
92 | RRIRTRPPRLPRPRPRPYDYPRP | -0.00193
93 | RRIRARPPRLPRPRPRPTVPPRP | 0.56
94 | RRIRIRPPRLPRPRPRPRMFPRP | -0.125
95 | RRIRPRPPRLPRPRPRPQPVPRP | 0.212
96 | RRIRHRPPRLPRPRPRPNAVPRP | 0.0142
97 | RRIRRRPPRLPRPRPRPRKLPRP | 0.253
98 | RRIRPRPPRLPRPRPRPVSIPRP | -0.271
99 | RRIRMRPPRLPRPRPRPEVLPRP | -0.0436
100 | RRIRKRPPRLPRPRPRPTWMPRP | 0.466

Row | Sequence | shrunken log2 fold change
101 | RRIRGRPPRLPRPRPRPFGEPRP | 0.793
102 | RRIRQRPPRLPRPRPRPNRRPRP | 0.103
103 | RRIRLRPPRLPRPRPRPFAGPRP | 0.024
104 | RRIRCRPPRLPRPRPRPVTQPRP | -0.15
105 | RRIRWRPPRLPRPRPRPNGQPRP | 0.158
106 | RRIRIRPPRLPRPRPRPKYRPRP | 0.0239
107 | RRIRCRPPRLPRPRPRPFRWPRP | 0.406
108 | RRIRGRPPRLPRPRPRPCWPPRP | 0.455
109 | RRIRTRPPRLPRPRPRPRDHPRP | 0.0565
110 | RRIRQRPPRLPRPRPRPYKEPRP | -0.0137
111 | RRIRYRPPRLPRPRPRPKFIPRP | -1.39
112 | RRIRWRPPRLPRPRPRPYDLPRP | -0.021
113 | RRIRERPPRLPRPRPRPYFYPRP | -0.757
114 | RRIRHRPPRLPRPRPRPVDWPRP | 0.15
115 | RRIRYRPPRLPRPRPRPHNEPRP | -0.675
116 | RRIRRRPPRLPRPRPRPVWDPRP | 0.246
117 | RRIRQRPPRLPRPRPRPGEPPRP | -0.00996
118 | RRIRSRPPRLPRPRPRPLCAPRP | 0.281
119 | RRIRRRPPRLPRPRPRPESVPRP | 0.075
120 | RRIRWRPPRLPRPRPRPQQFPRP | -0.262
121 | RRIRFRPPRLPRPRPRPFIHPRP | -0.724
122 | RRIRDRPPRLPRPRPRPQRIPRP | -0.142
123 | RRIRFRPPRLPRPRPRPAMFPRP | -0.292
124 | RRIRGRPPRLPRPRPRPAYMPRP | -0.353
125 | RRIRDRPPRLPRPRPRPVATPRP | 0.814
